The target in this test is Smlt3024 (Stenotrophomonas maltophilia K279a) (UniProt B2FJJ5). As to the kind of experiment: SEC-MALS; Superdex 200 10/300 GL coupled to a Wyatt MALS detector; isolated proteins and their mixture analysed, peaks checked by SDS-PAGE; dn/dc = 0.185 mL/g. (In gel filtration, larger molecules generally elute earlier.)

With Smlt3025_(86-333) (domain or fragment), the stoichiometry N (Smlt3024:Smlt3025 (86-333) ratio) is 1.

The values above are taken from PMC6759196.
